Experimental findings from patent US20070225207A1 (NOVOZYMES A S, published 2007) are described below.

In the test the target is IgE of dust mite allergic patient Donor 11 (serum IgE; IgE on the donor's basophils in the histamine release …). Briefly: cell-based or functional assay.

B1: Der p 1 variant DP060 (S54N, Q68F) (other)
chain: TNACSINGNAPAEIDLRQMRTVTPIRMQGGCGSCWAFSGVAATESAYLAYRNQNLDLAEQELVDCASFHGCHGDTIPRGIEYIQHNGVVQESYYRYVAREQSCRRPNAQRFGISNYCQIYPPNVNKIREALAQTHSAIAVIIGIKDLDAFRHYDGRTIIQRDNGYQPNYHAVNIVGYSNAQGVDYWIVRNSWDTNWGDNGYGYFAANIDLMMIEEYPYVVIL
Regarding B1, the “potency to induce histamine release in human basophil assay, relative to nDer p 1” value came to 20 fold.
